In patent publication US5804412:
Blank lines part the entries; values can stand above or below the substance they belong to.

Columns and labels:
[1] = target: endogenous EGFR of CV-1 cells (monkey (endogenous EGFR of CV-1 monkey kidney cells)); experiment: Scatchard analysis of 125I-EGF binding to vector transfected control CV-1 cells
[2] = target: endogenous EGFR of CV-1 cells (monkey (endogenous EGFR of CV-1 monkey kidney cells)); experiment: Scatchard analysis of 125I-EGF binding to SNX1 transfected CV-1 cells
[3] = target: EGFR core tyrosine kinase domain (residues 663-958) fused to LexA (human) (UniProt P00533); experiment: yeast two hybrid, LexA-EGFR bait and SNX1-B42 prey, galactose against dextrose control
[4] = target: endogenous EGFR of CV-1 cells (monkey (endogenous EGFR of CV-1 monkey kidney cells))

Kd [1]: 0.73 nM
Kd [2]: 1.34 nM
Substance: 125I-EGF (ligand)

induction of β-gal activity in response to galactose induction [3]: 400 x
Substance: carboxy terminal 58 amino acids of SNX1 fused to the B42 acid patch transcriptional activation domain

EGFR half life (35S-methionine pulse chase, immunoprecipitation) [4]: 2 h
Substance: human SNX1 (sorting nexin 1), full length
